Test [1] concerns the target serum thymidine kinase 1 (sTK1), dog (dog (endogenous in serum)). Briefly: SEC; CMT serum (dog No. 23) on Superose 12 (FPLC), 0.01 M HEPES pH 7.6, 0.15 M NH4Cl, 0.02% NaN3; fractions tested for TK1 activity and by immunoaffinity/Western blot. (In general: Size exclusion chromatography separates by hydrodynamic size, large species first.)
Test [2] has as its target cellular thymidine kinase 1 (TK1), dog (dog (endogenous in ALL cells and mammary tumor tissue)). Briefly: SEC; CMT tissue extract (dog No. 23) on Superose 12 (FPLC), 0.01 M HEPES pH 7.6, 0.15 M NH4Cl, 0.02% NaN3; fractions tested for TK1 activity and by immunoaffinity/Western blot.
Test [3] has the same target. Put plainly: SEC; ALL cell extract on Superose 12 (FPLC), 0.01 M HEPES pH 7.6, 0.15 M NH4Cl, 0.02% NaN3; fractions tested for TK1 activity and by immunoaffinity/Western blot.

The source of these data is PMC4195903.

Where “and” joins values, the source holds several entries; their conditions need not be identical. Equal entries are not always repeated.

In the case of “serum thymidine kinase 1 (sTK1), dog (enzyme)”, the stoichiometry N (in general, the number of molecules, sites or subunits per partner or assembly) in test [1] was 2 and 4.
As to “cellular thymidine kinase 1 (TK1), dog (enzyme)”, the stoichiometry N amounted to 4 in test [2] and 2 in test [3].
